Two molecules from patent publication EP1396542B1 (Genetics Institute, LLC, dated 2011) can be followed below.

For assay [1], the target named is T1, P-selectin expressed on the surface of CHO cells (CHO:P-selectin cell line) (UniProt P16109 42-830, limits assumed).
T1 construct: whole, on cells
T1 sequence (looked up): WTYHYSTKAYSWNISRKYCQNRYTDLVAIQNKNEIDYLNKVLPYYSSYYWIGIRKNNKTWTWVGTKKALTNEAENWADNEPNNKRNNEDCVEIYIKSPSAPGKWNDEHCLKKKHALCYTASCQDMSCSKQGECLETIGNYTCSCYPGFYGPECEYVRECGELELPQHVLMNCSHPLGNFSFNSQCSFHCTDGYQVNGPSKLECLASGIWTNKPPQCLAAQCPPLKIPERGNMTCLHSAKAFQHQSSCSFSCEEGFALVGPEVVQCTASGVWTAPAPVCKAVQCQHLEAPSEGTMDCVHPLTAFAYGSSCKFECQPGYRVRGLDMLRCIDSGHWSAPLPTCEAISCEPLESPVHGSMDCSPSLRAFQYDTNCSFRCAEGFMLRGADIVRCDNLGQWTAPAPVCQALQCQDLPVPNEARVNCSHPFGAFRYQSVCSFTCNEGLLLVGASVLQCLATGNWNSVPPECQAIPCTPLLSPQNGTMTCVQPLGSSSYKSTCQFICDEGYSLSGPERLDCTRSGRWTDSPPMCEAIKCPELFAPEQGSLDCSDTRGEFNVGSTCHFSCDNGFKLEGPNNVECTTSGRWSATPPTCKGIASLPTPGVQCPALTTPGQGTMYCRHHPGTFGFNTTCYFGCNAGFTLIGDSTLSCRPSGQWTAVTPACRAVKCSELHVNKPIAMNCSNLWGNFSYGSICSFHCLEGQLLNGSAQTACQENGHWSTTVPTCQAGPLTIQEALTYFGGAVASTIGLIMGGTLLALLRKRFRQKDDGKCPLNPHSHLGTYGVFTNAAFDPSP
Description: conditioned medium coated onto plastic dishes, binding of CHO:P-selectin cells; reference is sPSL.T7 without PACE.

The target of assay [2] is T1, P-selectin expressed on the surface of …. Briefly: adhesion of 3H-thymidine labeled CHO:P-selectin cells to transfected COS cells, scintillation counting.

B1: sPSL.T7 co-expressed with 3/4FT and PACE (PACE-cleaved soluble P-selectin ligand) (ligand, not shown: large carriers)
chain: QATEYEYLDYDFLPETEPPEMLRNSTDTTPLTGPGTPESTTVEPAARRSTGLDAGGAVTELTTELANMGNLSTDSAAMEIQTTQPAATEAQTTPLAATEAQTTRLTATEAQTTPLAATEAQTTPPAATEAQTTQPTGLEAQTTAPAAMEAQTTAPAAMEAQTTPPAAMEAQTTQTTAMEAQTTAPEATEAQTTQPTATEAQTTPLAAMEALSTEPSATEALSMEPTTKRGLFIPFSVSSVTHKGIPMAASNLSV
modifications: glycoprotein made in cells co-expressing 3/4FT
notes: also called PACE-cleaved P-selectin ligand; sPSL.T7 from the CP/PSL-T7 (R4.1) CHO-PACE line
As to B1, in assay [1], the “fold increase in bound CHO:P-selectin cells against P-selectin ligand not co-expressed with PACE” value is ~2 fold.

B2: P-selectin ligand protein, full length, expressed on COS cells co-transfected with pMT21:PL85 and the 3/4FT gene (pEA.3/4FT) (ligand)
chain: QATEYEYLDYDFLPETEPPEMLRNSTDTTPLTGPGTPESTTVEPAARRSTGLDAGGAVTELTTELANMGNLSTDSAAMEIQTTQPAATEAQTTPLAATEAQTTRLTATEAQTTPLAATEAQTTPPAATEAQTTQPTGLEAQTTAPAAMEAQTTAPAAMEAQTTPPAAMEAQTTQTTAMEAQTTAPEATEAQTTQPTATEAQTTPLAAMEALSTEPSATEALSMEPTTKRGLFIPFSVSSVTHKGIPMAASNLSVNYPVGAPDHISVKQCLLAILILALVATIFFVCTVVLAVRLSRKGHMYPVRNYSPTEMVCISSLLPDGGEGPSATANGGLSKAKSPGLTPEPREDREGDDLTLHSFLP
modifications: glycoprotein made in cells co-expressing (α1,3/1,4) fucosyltransferase (3/4FT)
notes: also called PSL; protein encoded by pMT21:PL85
In the case of B2, the “fold binding of CHO:P-selectin cells relative to COS mock cells” value in assay [2] was ~5.4 fold.
